Measured values from patent US20240360223A1 (DRAGONFLY THERAPEUTICS, published 2024).
Where a chain is given by its changes, count along the chain named. Values joined by “and” are separate entries in the source; they are usually repeats but may differ in a detail not shown here. Equal values may be shown once.

What was measured:
[1] = target: T1, human NKG2D (recombinant mFc-tagged dimer) (human, UniProt P26718 78-216); assay: SPR
T1 construct: also called hNKG2D
T1 sequence (looked up): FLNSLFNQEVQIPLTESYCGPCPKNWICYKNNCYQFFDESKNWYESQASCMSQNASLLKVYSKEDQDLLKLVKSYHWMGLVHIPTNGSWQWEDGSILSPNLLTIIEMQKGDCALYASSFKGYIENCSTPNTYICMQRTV
Excerpt: (§1) NKG2D is a native dimer, therefore recombinant mFc-tagged NKG2D dimer was used for this experiment. Two different fits were utilized to obtain the equilibrium affinity data: steady state affinity fit and kinetic fit.

[2] = target: T2, human CD16a V158 (human, UniProt P08637 17-208); assay: SPR, kinetic fit
T2 construct: also called hCD16aV; hCD16a V158
T2 sequence (P08637 17-208 F176V limits assumed): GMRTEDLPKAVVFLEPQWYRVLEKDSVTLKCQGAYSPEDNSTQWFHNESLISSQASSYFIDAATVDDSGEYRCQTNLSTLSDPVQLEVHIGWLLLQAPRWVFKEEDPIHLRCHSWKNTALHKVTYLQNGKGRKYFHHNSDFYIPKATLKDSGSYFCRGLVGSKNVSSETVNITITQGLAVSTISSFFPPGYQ

[3] = target: T3, human CD32a R131 (human, UniProt P12318 36-218, limits assumed); assay: SPR, steady state
T3 construct: also called FcγRIIa R131
T3 sequence (looked up): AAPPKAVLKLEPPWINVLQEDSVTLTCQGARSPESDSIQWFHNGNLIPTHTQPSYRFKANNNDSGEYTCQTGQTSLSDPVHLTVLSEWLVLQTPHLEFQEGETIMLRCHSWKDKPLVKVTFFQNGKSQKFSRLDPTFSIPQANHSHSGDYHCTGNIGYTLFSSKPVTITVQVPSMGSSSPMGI

[4] = target: T4, human CD32b (human, UniProt P31994 46-217, limits assumed); assay: SPR, steady state
T4 construct: also called FcγRIIb
T4 sequence (looked up): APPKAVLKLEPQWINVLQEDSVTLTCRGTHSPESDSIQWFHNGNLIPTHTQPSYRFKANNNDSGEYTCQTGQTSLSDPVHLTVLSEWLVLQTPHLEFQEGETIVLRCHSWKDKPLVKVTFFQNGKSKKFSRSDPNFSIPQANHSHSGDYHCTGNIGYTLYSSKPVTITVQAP

[5] = target: T5, human CD16b (human, UniProt O75015 17-200, limits assumed); assay: SPR, steady state
T5 construct: also called FcγRIIIb
T5 sequence (O75015 17-200 limits assumed): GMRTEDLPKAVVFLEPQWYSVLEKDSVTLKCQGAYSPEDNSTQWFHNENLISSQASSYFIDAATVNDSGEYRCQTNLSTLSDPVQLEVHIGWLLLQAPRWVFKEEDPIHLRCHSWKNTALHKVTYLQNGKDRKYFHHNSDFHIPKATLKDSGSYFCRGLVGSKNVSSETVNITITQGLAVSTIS

[6] = target: T6, human BAFF-R expressed on cells (human, UniProt Q96RJ3 1-184); assay: KinExA, BAFF-R-CHO cells
T6 construct: Cell surface BAFF-R, endogenous on B cell lines and primary B cells or overexpressed on isogenic CHO cells; also called hBAFF-R; hBAFF-R-CHO

[7] = target: T1, human NKG2D (recombinant mFc-tagged …); assay: SPR, steady state fit
Excerpt: as §1

[8] = target: T7, cynomolgus NKG2D (recombinant mFc-tagged dimer) (cynomolgus, UniProt P61252 78-216); assay: SPR, steady state fit
T7 construct: also called cyno NKG2D
T7 sequence (looked up): T1 sequence (looked up) with D38N, T128I
Excerpt: as §1

[9] = target: T1, human NKG2D (recombinant mFc-tagged …); assay: SPR, kinetic fit, control
[10] = target: T1, human NKG2D (recombinant mFc-tagged …); assay: SPR, kinetics fit, average
Excerpt: as §1

[11] = target: T6, human BAFF-R expressed on cells; assay: flow cytometry, BJAB cells
[12] = target: T6, human BAFF-R expressed on cells; assay: flow cytometry, Raji cells
[13] = target: T7, cynomolgus NKG2D (recombinant …); assay: SPR, kinetics fit, average
Excerpt: (§2) Two different fits were utilized to obtain the equilibrium affinity data: steady state affinity fit and kinetic fit.

[14] = target: T7, cynomolgus NKG2D (recombinant …); assay: SPR, steady state fit, average
Excerpt: as §2

[15] = target: T6, human BAFF-R expressed on cells; assay: flow cytometry, human BAFF-R CHO cells
Excerpt: Isogenic cell lines overexpressing human and cynomolgus BAFF-R on the backbone of CHO cell line were designed.

[16] = target: T8, cynomolgus CD16 (cynomolgus, UniProt Q8SPW2 17-208, limits assumed); assay: SPR, cynomolgus FcγRIII, summary table
T8 construct: also called Cyno CD16; cynomolgus FcγRIII
T8 sequence (Q8SPW2 17-208 limits assumed): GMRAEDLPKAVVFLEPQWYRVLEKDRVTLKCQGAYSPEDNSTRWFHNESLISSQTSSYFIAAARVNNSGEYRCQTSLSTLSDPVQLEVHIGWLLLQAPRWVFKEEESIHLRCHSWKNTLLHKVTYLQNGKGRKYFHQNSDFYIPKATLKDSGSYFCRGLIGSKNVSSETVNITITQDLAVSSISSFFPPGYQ

[17] = target: T1, human NKG2D (recombinant mFc-tagged …); assay: SPR, high concentration sample, control
[18] = target: T6, human BAFF-R expressed on cells; assay: blocking of BAFF-biotin on hBAFF-R CHO cells
[19] = target: T8, cynomolgus CD16; assay: SPR, kinetic fit; first replicate, kinetic fit
[20] = target: T9, human FcRn (human, UniProt P55899 24-297; P61769 21-119); assay: SPR, pH 6.0, steady state; pH 6.0; first replicate
[21] = target: T9, human FcRn; assay: SPR, pH 6.0, steady state; pH 6.0; third replicate
[22] = target: T9, human FcRn; assay: SPR, pH 6.0, steady state; pH 6.0; fourth replicate
[23] = target: T9, human FcRn; assay: SPR, pH 6.0, steady state; pH 6.0; second replicate
[24] = target: T10, cynomolgus FcRn (cynomolgus, UniProt Q8SPV9 24-297; Q8SPW0 21-119); assay: as above
T10 construct: also called Cyno FcRn
T10 sequence (Q8SPV9 24-297 limits assumed, chain 1 of 2): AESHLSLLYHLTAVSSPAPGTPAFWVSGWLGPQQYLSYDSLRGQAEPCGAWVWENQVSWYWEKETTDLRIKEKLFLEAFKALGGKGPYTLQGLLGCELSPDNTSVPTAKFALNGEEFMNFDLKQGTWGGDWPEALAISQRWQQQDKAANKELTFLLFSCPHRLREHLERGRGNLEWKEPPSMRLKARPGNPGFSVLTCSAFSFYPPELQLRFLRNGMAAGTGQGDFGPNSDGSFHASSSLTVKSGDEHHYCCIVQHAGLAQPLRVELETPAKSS
T10 sequence (Q8SPW0 21-119 limits assumed, chain 2 of 2): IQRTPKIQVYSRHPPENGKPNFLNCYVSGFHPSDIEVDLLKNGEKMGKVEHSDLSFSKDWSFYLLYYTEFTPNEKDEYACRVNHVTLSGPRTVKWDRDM

- koff [1]: 0.11 s⁻¹
- kon [1]: 240000 M⁻¹ s⁻¹ and 230000 M⁻¹ s⁻¹
- Kd [2]: 131 nM (2×) and 134 nM and 122 nM
- Kd [3]: 1500 nM and 1300 nM and 1200 nM
- Kd [4]: 5900 nM and 5500 nM and 5800 nM and 6300 nM
- Kd [5]: 7000 nM and 6300 nM and 7900 nM and 6400 nM
- Kd [6]: 2.55 nM
- Kd [7]: 438 nM and 453 nM and 468 nM and 466 nM
- Kd [8]: 501 nM and 516 nM and 535 nM and 530 nM
- Kd [9]: 503 nM
- Kd [10]: 456 nM
- EC50 [11]: 0.37 nM
- Max FOB [11]: 16 fold over background
- EC50 [12]: 0.18 nM
- Max FOB [12]: 10 fold over background
- Kd [13]: 596 nM
- Kd [14]: 609 nM
- EC50 [15]: 0.9 nM
- Max FOB [15]: 85 fold over background
- Kd [16]: 271 nM
- koff [17]: 0.11 s⁻¹
- kon [17]: 220000 M⁻¹ s⁻¹
- IC50 [18]: 6.76 nM
- Kd [19]: 261 nM
- Kd [20]: 1000 nM
- Kd [21]: 1100 nM
- Kd [22]: 1100 nM
- Kd [23]: 1000 nM
- Kd [24]: 1000 nM
B1: AB1424/AB1612 F3′ TriNKET (bispecific antibody, human IgG1, kappa)
chain: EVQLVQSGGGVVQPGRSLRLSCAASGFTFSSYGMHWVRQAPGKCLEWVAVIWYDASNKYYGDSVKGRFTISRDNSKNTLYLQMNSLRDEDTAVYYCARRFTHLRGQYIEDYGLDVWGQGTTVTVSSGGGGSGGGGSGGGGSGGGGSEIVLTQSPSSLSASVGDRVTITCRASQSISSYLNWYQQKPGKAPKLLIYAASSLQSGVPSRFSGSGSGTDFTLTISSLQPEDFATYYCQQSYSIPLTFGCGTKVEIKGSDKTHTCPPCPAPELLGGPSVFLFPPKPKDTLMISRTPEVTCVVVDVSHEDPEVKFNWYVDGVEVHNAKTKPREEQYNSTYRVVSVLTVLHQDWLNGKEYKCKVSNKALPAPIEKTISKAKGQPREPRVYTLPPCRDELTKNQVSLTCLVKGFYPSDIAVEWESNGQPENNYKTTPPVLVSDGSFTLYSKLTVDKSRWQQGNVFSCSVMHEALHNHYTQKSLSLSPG
heavy: EVQLVESGGGLVKPGGSLRLSCAASGFTFSSYSMNWVRQAPGKGLEWVSSISSSSSYIYYADSVKGRFTISRDNAKNSLYLQMNSLRAEDTAVYYCARGAPIGAAAGWFDPWGQGTLVTVSSASTKGPSVFPLAPSSKSTSGGTAALGCLVKDYFPEPVTVSWNSGALTSGVHTFPAVLQSSGLYSLSSVVTVPSSSLGTQTYICNVNHKPSNTKVDKKVEPKSCDKTHTCPPCPAPELLGGPSVFLFPPKPKDTLMISRTPEVTCVVVDVSHEDPEVKFNWYVDGVEVHNAKTKPREEQYNSTYRVVSVLTVLHQDWLNGKEYKCKVSNKALPAPIEKTISKAKGQPREPQVCTLPPSRDELTENQVSLTCLVKGFYPSDIAVEWESNGQPENNYKTTPPVLDSDGSFFLYSWLTVDKSRWQQGNVFSCSVMHEALHNHYTQKSLSLSPG
light: DIQMTQSPSSVSASVGDRVTITCRASQGISSWLAWYQQKPGKAPKLLIYAASSLQSGVPSRFSGSGSGTDFTLTISSLQPEDFATYYCQQGVSFPRTFGGGTKVEIKRTVAAPSVFIFPPSDEQLKSGTASVVCLLNNFYPREAKVQWKVDNALQSGNSQESVTEQDSKDSTYSLSSTLTLSKADYEKHKVYACEVTHQGLSSPVTKSFNRGEC
notes: Chain S: anti-BAFF-R scFv-CH2-CH3; chain H: anti-NKG2D VH-CH1-CH2-CH3; chain L: anti-NKG2D VL-CL; also called AB1612-002
